Publication PMC6048055, “O2-inducible H2O2-forming NADPH oxidase is responsible for the hyper O2 sensitivity of Bifidobacterium longum subsp. infantis” (Scientific Reports, 2018)

How the values were obtained:
[1] = system: NC(=O)C1=CN([C@@H]2O[C@H](COP(=O)(O)OP(=O)(O)OC[C@H]3O[C@@H](n4cnc5c(N)ncnc54)[C@H](OP(=O)(O)O)[C@@H]3O)[C@@H](O)[C@H]2O)C=CC1; assay: purified protein; details: O2 as electron acceptor (air saturated), 50 mM potassium phosphate pH 6.5, 37 °C, apparent Km
[2] = system: NC(=O)C1=CN([C@@H]2O[C@H](COP(=O)(O)OP(=O)(O)OC[C@H]3O[C@@H](n4cnc5c(N)ncnc54)[C@H](O)[C@@H]3O)[C@@H](O)[C@H]2O)C=CC1; assay: purified protein; details: O2 as electron acceptor (air saturated), 50 mM potassium phosphate pH 6.5, 37 °C, apparent Km
[3] = biological target: T1, NADPH oxidase (NPOX) (Bifidobacterium longum, UniProt A0ACD7UUP8); assay: HPLC of flavin extracted from purified enzyme; UV-Vis spectrum; assay type: binding; details: co-purified bound flavin, flavoprotein absorbance maxima […] nm
T1 construct: gene Blon_2447; native enzyme purified from B. infantis cells; 254 residues; 29 kDa by SDS-PAGE
T1 sequence (A0ACD7UUP8 52-305): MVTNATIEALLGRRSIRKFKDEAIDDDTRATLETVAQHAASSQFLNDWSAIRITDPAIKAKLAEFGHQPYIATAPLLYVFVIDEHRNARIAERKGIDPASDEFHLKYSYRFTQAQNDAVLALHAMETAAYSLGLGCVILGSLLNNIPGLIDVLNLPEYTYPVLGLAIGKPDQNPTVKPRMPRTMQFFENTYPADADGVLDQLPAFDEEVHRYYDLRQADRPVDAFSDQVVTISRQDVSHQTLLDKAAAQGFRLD

Compound | Km [1] [µM] | Km [2] [µM] | HPLC of flavin extracted from purified enzyme; UV-Vis spectrum [3]
NADPH oxidase (NPOX) (Bifidobacterium longum subsp. infantis ATCC 15697 = JCM 1222 = DSM 20088) | 1.38 ± 0.12 | 113.3 ± 7.3 | –
Cc1cc2nc3c(=O)[nH]c(=O)nc-3n(C[C@H](O)[C@H](O)[C@H](O)COP(=O)(O)O)c2cc1C [FMN] | – | – | The bound flavin was identified as FMN by HPLC analysis
